The source of these data is patent US20090226370A1.

The target in the assay is RFP-fused mouse full length COMP expressed in RCS cells (pDsRed1-N1-COMP) (mouse) (UniProt Q9R0G6). The assay is described as follows: cell-based or functional assay.
Sequence of UniProt Q9R0G6 (Q9R0G6 20-755): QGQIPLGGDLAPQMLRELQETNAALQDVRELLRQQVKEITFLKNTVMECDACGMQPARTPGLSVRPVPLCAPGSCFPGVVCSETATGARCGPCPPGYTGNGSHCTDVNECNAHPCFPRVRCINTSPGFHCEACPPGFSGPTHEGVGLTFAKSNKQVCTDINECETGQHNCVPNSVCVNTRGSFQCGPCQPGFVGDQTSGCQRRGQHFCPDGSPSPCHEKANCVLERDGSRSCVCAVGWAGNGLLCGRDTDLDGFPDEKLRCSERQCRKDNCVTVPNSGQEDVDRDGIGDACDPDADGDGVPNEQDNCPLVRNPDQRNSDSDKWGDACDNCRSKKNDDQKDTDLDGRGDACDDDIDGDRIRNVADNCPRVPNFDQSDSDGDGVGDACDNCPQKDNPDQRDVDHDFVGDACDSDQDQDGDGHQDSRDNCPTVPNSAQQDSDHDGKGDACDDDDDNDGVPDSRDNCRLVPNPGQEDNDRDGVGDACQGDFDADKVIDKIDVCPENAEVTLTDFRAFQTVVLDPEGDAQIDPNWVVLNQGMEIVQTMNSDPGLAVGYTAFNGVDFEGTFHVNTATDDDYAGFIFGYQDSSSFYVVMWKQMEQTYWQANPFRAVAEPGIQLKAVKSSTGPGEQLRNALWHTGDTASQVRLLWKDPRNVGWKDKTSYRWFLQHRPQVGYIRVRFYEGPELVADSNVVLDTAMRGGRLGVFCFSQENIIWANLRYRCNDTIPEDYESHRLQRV

As to “GFP-linked GEP expressed in RCS cells (pEGFP-GEP) (ligand)”, the enhancement of GEP-mediated stimulation of RCS cell proliferation by coexpression of COMP, day 2 (viable cell count) is 2.3 fold; the enhancement of GEP-mediated stimulation of RCS cell proliferation by coexpression of COMP, day 3 (viable cell count) amounted to 2.1 fold; the enhancement of GEP-mediated stimulation of RCS cell proliferation by coexpression of COMP, day 4 (viable cell count) stood at 1.7 fold; the enhancement of GEP-mediated stimulation of RCS cell proliferation by coexpression of COMP, day 5 (viable cell count) was determined as 1.5 fold.
